Experimental data reported in the nanobody polyreactivity screen of Harvey et al. (2022).

Assay: yeast display, Sf9 membrane polyspecificity reagent, FACS + sequencing; frameworks hold sequencing errors
How it was run: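 Synthetic nanobody libraries on Saccharomyces cerevisiae BJ5465 were galactose-induced for 36–48 hours, stained 1 hour at 4 °C with 10% biotinylated, detergent-solubilized Sf9 membrane reagent and enriched on streptavidin microbeads. FACS then separated cells into low and high (top ~1%) gates by anti-HA (expression) and streptavidin (reagent binding) fluorescence. Genes were colony-PCR amplified, MiSeq 2 × 250 sequenced and CDR-length filtered. A clone's polyreactivity label is that of its gate of origin.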

**Q.** For “QVQLVESGGGLVQAGGSLRLSCAASGFIFTVYALGWYRQAPVKERELVATITGTGDTNYADSVKGRFTISRDNAKNTVYLQMNSLKPEDTAVYYCAVSPRVPFRKPVLTPYNMYYWGQGTQVTVSS”, which “polyreactivity (PSR sort gate)” value is on record?
**A.** high polyreactivity

**Q.** Which “polyreactivity (PSR sort gate)” value does the source give for “QVQLVESGGGLVQAGGSLRLSCAASGFIFTYYALGWYRQAPGKERELVAAITIGGTTNYADSVKGRFTISRDNAKNTVYLQMNSLKPEDTAVYYCAAYFTIEDWYYNEAVRYYYWGQGTKVTVSS” here?
**A.** high polyreactivity

**Q.** For “QVQLVESGGGLVQAGGSLRLSCAASGFIFVDNAMGWYRQAPRQERELVASITRGGSTDYADSVKGRFTISRDNAKNTVYLQRNSLKPEDTAVYYCAASWHRPAPDEGMDYWGQGTQVTVSS”, which “polyreactivity (PSR sort gate)” value is on record?
**A.** low polyreactivity

**Q.** With “QVQLVESGGGLVQAGGSLRLSCAASGFIFVDYVMGWDIQAPGKERELVAAISERGTGTYYADSVKRRFTISRDKAKNTVYLQMNSLKPEDTAVYYCATLGTGWWNCAYYYWGQGTQVTVSS” as the sequence, how does the “polyreactivity (PSR sort gate)” value read?
**A.** low polyreactivity

**Q.** Which “polyreactivity (PSR sort gate)” value does the source give for “QVQLVESGGGLVQAGGSLRLSCAASGFIFVEYAMGWYRQAPGKERELVAAISGRDGSTYYADSVKGRFTISRDNAKNTVYLQMNSLKPEDTAVYYCAADRIHSVTRYDYDYWGQGTQVTVSS” here?
**A.** low polyreactivity

**Q.** Which “polyreactivity (PSR sort gate)” value does the source give for “QVQLVESGGGLVQAGGSLRLSCAASGFIFVGNDMGWYRQAPGKERELVAAISSGGSTYYADSVKGRFTISRDNAKNTVYLQMNSLKPEDTAVYYCAATYVYYLYGYWGQGTQVTVSS” here?
**A.** low polyreactivity

**Q.** With “QVQLVESGGGLVQAGGSLRLSCAASGFIFVGNDMGWYRQAPGKERELVAAISSGGTTIYADSVKGRFTISRDNAKNTVYLQMNSLKPEDTAVYFCAADYDYRQGYDSVHLDYWGQGTQVTVSS” as the sequence, how does the “polyreactivity (PSR sort gate)” value read?
**A.** low polyreactivity

**Q.** For “QVQLVESGGGLVQAGGSLRLSCAASGFIFVGNVMGWYRQAPGKERELVARISTSGGSTYYADSVKGRFTISRDNAKNTVYLQMNSLKPEDTAVYYCAARRRTGREYGYWGQGTQVTVSS”, which “polyreactivity (PSR sort gate)” value is on record?
**A.** high polyreactivity

**Q.** Which “polyreactivity (PSR sort gate)” value does the source give for “QVQLVESGGGLVQAGGSLRLSCAASGFIFVIYAMGWSRQAPGKERELVAAIRWRGGGTYYADSVKGRFTISRDNAKNTVYLQMYSLKPEDTAVYYCNADGWTYREEYWWRMDYWGQGTQVTVSS” here?
**A.** low polyreactivity

**Q.** With “QVQLVESGGGLVQAGGSLRLSCAASGFIFVKYAMGWNRQAPGKERELVAAITNGCSTYYADSVKGRFTISRDNAKNTVYLQMNSLKPEDTAVYYCAAGHPEYDFWGQGTQVTVSS” as the sequence, how does the “polyreactivity (PSR sort gate)” value read?
**A.** low polyreactivity

**Q.** For “QVQLVESGGGLVQAGGSLRLSCAASGFIFVKYVMGWYRQAPGKERELVATITNGVSTNYADSVKGRFTISRDNAKNTVYLQMNSLKPEDTAVYYCNTGSNAWYFSGDYWGQGTQVTVSS”, which “polyreactivity (PSR sort gate)” value is on record?
**A.** low polyreactivity

**Q.** Which “polyreactivity (PSR sort gate)” value does the source give for “QVQLVESGGGLVQAGGSLRLSCAASGFIFVNYAMGWYRQAPGKERELVAAITRRGGRTYYADSVKGRFTISRDNAKNTVFLQINRLKPEDTAVYYCATENQSRTPEEDSWGQGTQVTVSS” here?
**A.** high polyreactivity

**Q.** With “QVQLVESGGGLVQAGGSLRLSCAASGFIFVRNAMVWYRQAPGIERELVAAIRWSGGSTYYADSVKGRFTISRDNAKNTVYLQMNSLKPEDTAVYYCAKEPPPVKGDYWGQGTQVTVSS” as the sequence, how does the “polyreactivity (PSR sort gate)” value read?
**A.** low polyreactivity

**Q.** Which “polyreactivity (PSR sort gate)” value does the source give for “QVQLVESGGGLVQAGGSLRLSCAASGFIFVRNTRGWYRQAPGKERELVATITRRGGSTSYADSVKGRFTISRDNAKNTVYLQMNSLKPEDTAVYYCNARSVYGSKQEEYWGQGTQVTVSS” here?
**A.** high polyreactivity

**Q.** Which “polyreactivity (PSR sort gate)” value does the source give for “QVQLVESGGGLVQAGGSLRLSCAASGFIFVRYALGWYSQAPGKEMELVAAIRRGGGDSSYYADSVKGRFTISRDNAKNTVYLQMNSLKPEDTAVYYCAARPAIERDYWGQGTQVTVSS” here?
**A.** high polyreactivity

**Q.** With “QVQLVESGGGLVQAGGSLRLSCAASGFIFVRYAMGWYRQAPGKERELVAAISSSGGTTNYADSVKGRFTISRDNAKNTVYLQMNSLKPEDTAVYYCAAYVYQTPHSLHIYDYWGQGTQVTVSS” as the sequence, how does the “polyreactivity (PSR sort gate)” value read?
**A.** low polyreactivity

**Q.** With “QVQLVESGGGLVQAGGSLRLSCAASGFIFVRYAMGWYRQAPGKQRELVASITRSGGSTYYADSVKGRFTISRDNAKNTVYLQMNSLKPEDTAVYYCAASYFRSRGSTYGYWGQGTQVTVSS” as the sequence, how does the “polyreactivity (PSR sort gate)” value read?
**A.** high polyreactivity

**Q.** Which “polyreactivity (PSR sort gate)” value does the source give for “QVQLVESGGGLVQAGGSLRLSCAASGFIFVVYTMGWYRQAPGKERELVAAITSGGSTYYADSVKGRFTISRDNAKNTVYLQMNSLKPEDTAVYYCYALASRYPAYYYWGQGTQVTVSS” here?
**A.** low polyreactivity

**Q.** For “QVQLVESGGGLVQAGGSLRLSCAASGFIFVYNAMGWYRQAPGKERELVAAIDYGGGSTTYADSVKGRFTISRDNAKNTVYLQMNSLKPEDTAVYYCAAYYRYLDDIYEYEYWGQGTQVTVSS”, which “polyreactivity (PSR sort gate)” value is on record?
**A.** low polyreactivity

**Q.** Which “polyreactivity (PSR sort gate)” value does the source give for “QVQLVESGGGLVQAGGSLRLSCAASGFIFWDKAMGWYRQAPGKEWELVAAISKSGTRTYYADSVKGRFTISRDTAKKTVDLQMNSLKPEETAVYYCAAEGSGYDYYYWGQGTQVTVSS” here?
**A.** high polyreactivity

**Q.** For “QVQLVESGGGLVQAGGSLRLSCAASGFIFWDYAMGWYRQAPGKERELVAAISDSGGDTYYADSVKGRFTISRDNAKNTVYFQMNSLKPEDTAVYYCAADVELWVFRGQQYDYWGQGTQVTVSS”, which “polyreactivity (PSR sort gate)” value is on record?
**A.** low polyreactivity

**Q.** For “QVQLVESGGGLVQAGGSLRLSCAASGFIFWGNAMGWYRQAPGKERELLAAINYSGGRTYYADSVKGRFTISRDNAKNTVYLQMNSLKPEDSAAYYCAAKYRYHVSGYDYWGQATQVTVSS”, which “polyreactivity (PSR sort gate)” value is on record?
**A.** high polyreactivity

**Q.** Which “polyreactivity (PSR sort gate)” value does the source give for “QVQLVESGGGLVQAGGSLRLSCAASGFIFWKNAMGWYRQAPGKERELVAAISWSGGRTYYADSVKGRFTISRDNAKNTVYLQMNSLKPEDTAVYYCNAAGRYKPGAPYDYWGQGTQVTVSS” here?
**A.** low polyreactivity

**Q.** With “QVQLVESGGGLVQAGGSLRLSCAASGFIFWNYAMGWNRQAPGKERDLVAAISSGGTITKYADSVKGRFTISRDKAKNTVYLQMNSLKPEDTAVYYCNAVVRVRFRKNDYWGQGTQVTVSS” as the sequence, how does the “polyreactivity (PSR sort gate)” value read?
**A.** high polyreactivity

**Q.** For “QVQLVESGGGLVQAGGSLRLSCAASGFIFWSYAMGWYRQAPGKERELVAAINTSGDSTYYADSVKGRFTISRDNAKYTVYLQMNSLKPEDTAVYSCAAKSSTRGDYWGQGTQVTVSS”, which “polyreactivity (PSR sort gate)” value is on record?
**A.** low polyreactivity

**Q.** With “QVQLVESGGGLVQAGGSLRLSCAASGFIFWSYAMGWYRQAPGKERELVAAISWSGGRTYYADSVKGRFTISRDNAKNTVYLQMNSLKPEDTAVYYCAAVIRYGSQYPALDYWGQGTQVTVSS” as the sequence, how does the “polyreactivity (PSR sort gate)” value read?
**A.** high polyreactivity

**Q.** Which “polyreactivity (PSR sort gate)” value does the source give for “QVQLVESGGGLVQAGGSLRLSCAASGFIFWTYAMGWYRQAPGKERELVAAITGGGGTTYYADSVKGRFTISRDNAKNTVYLQMNSLKPEDTAVYYCAAKQYRSRSGGYWGQGTQVTVSS” here?
**A.** high polyreactivity

**Q.** With “QVQLVESGGGLVQAGGSLRLSCAASGFIFWVNAMGWYRQAPGKERELVAAISQSGGTTYYADSVKGRFTISRDNAKNTVYFQMNSLKPEDTAVYYCNALWRGHGRYNYWGQGTQVTVSS” as the sequence, how does the “polyreactivity (PSR sort gate)” value read?
**A.** low polyreactivity

**Q.** For “QVQLVESGGGLVQAGGSLRLSCAASGFIFWWYGMGWYRPAPGKEREFVAAITQSGSTYYADSVKGRFTISRDNAKNTVYLQMNSLKPEDTAVYYCADVVGRRLYPRYDYWGQGTQVTVSS”, which “polyreactivity (PSR sort gate)” value is on record?
**A.** high polyreactivity

**Q.** Which “polyreactivity (PSR sort gate)” value does the source give for “QVQLVESGGGLVQAGGSLRLSCAASGFIFWWYTMGWYRQAPGKETELVAAITGSGGSTYYADSVKGRFTISRDNAKNTVYLQMNSLKPEDTAVYYCNAVSAYKWQYDYWGQGTQVTVSS” here?
**A.** high polyreactivity

**Q.** With “QVQLVESGGGLVQAGGSLRLSCAASGFIFWYYAMGWYRPAPGQERELVAAIRRGGSTNYADSVKGRFTISRDNAKNTVYLQMNSLKPEDTAVYYCAADVPRDTFDSWGQGTQVTVSS” as the sequence, how does the “polyreactivity (PSR sort gate)” value read?
**A.** low polyreactivity

**Q.** For “QVQLVESGGGLVQAGGSLRLSCAASGFIFWYYAMGWYRQAPGKERELVAAISWSGTSTYYADSVKGRFTISRDNAKNTVYLQMNSLKPEDTAVYYCAAGPYSYYPLHAHYDYWGQGTQVTVSS”, which “polyreactivity (PSR sort gate)” value is on record?
**A.** high polyreactivity

**Q.** With “QVQLVESGGGLVQAGGSLRLSCAASGFIFWYYAMGWYRQAPGKERELVAAITSGGSTNYADSVKGRFTISRDNAKNTVYLQMNSLKPEDTAVYYCARPYVTYEYDYWGQGTQVTVSS” as the sequence, how does the “polyreactivity (PSR sort gate)” value read?
**A.** low polyreactivity

**Q.** Which “polyreactivity (PSR sort gate)” value does the source give for “QVQLVESGGGLVQAGGSLRLSCAASGFIFWYYAMGWYRQAPGKERELVAAITSRGGSTYYADSVKGRFTISSDNAKNTDYLQMNSLKPEDTAVYYCAAKFPSRFYSFVQYYYWGQGTQVTVSS” here?
**A.** high polyreactivity

**Q.** With “QVQLVESGGGLVQAGGSLRLSCAASGFIFWYYDMGWYRPAPGKEREFVAAITRSSGSTYYADSVKGRFTISRDNAKNTVYLQMNSLKPEDTAVYYCNADSVAYGDEYDYWGQGTQVTVSS” as the sequence, how does the “polyreactivity (PSR sort gate)” value read?
**A.** low polyreactivity

**Q.** Which “polyreactivity (PSR sort gate)” value does the source give for “QVQLVESGGGLVQAGGSLRLSCAASGFIFYANAMGWYRQAPGKERELVAAITWSGSRTYYADSVKGRFTISRDNAKNTVYLQMNSLKPEDTAVYYCNKDWYVGSFGYPEDYWGQGTQVTVSS” here?
**A.** low polyreactivity

**Q.** For “QVQLVESGGGLVQAGGSLRLSCAASGFIFYDYAMGWYRQAPGKERELVAAIRSSDGGTYYADSVKGRFTISRDNAKNTVYLQMNSLKPEDTAVYYCAAEIRWGWHPYYDYDEYWGQGTQVTVSS”, which “polyreactivity (PSR sort gate)” value is on record?
**A.** low polyreactivity

**Q.** With “QVQLVESGGGLVQAGGSLRLSCAASGFIFYDYAMGWYRQAPGKERELVAAISSGGSTNYADSVKGRFTISRDNAKNSVYLQMNSLKPEDTAVYYCAADDRSYATWKRDYDYWGQGTQVTVSS” as the sequence, how does the “polyreactivity (PSR sort gate)” value read?
**A.** low polyreactivity

**Q.** Which “polyreactivity (PSR sort gate)” value does the source give for “QVQLVESGGGLVQAGGSLRLSCAASGFIFYDYAMGWYRQAPGKERELVAAITVDGGTTYYADSVKGRFTISRDNAKNTVYLQMNSLKPEDTAVYYCAADTYYGFDSNYEYWGQGTQVTVSS” here?
**A.** low polyreactivity

**Q.** For “QVQLVESGGGLVQAGGSLRLSCAASGFIFYDYAMGWYRQAPGKERELVAGITDSGGSTSYADSVKGRFTISRDNAKNTVYLHMNSLKPEDTAVYYCAADNYVRAGINYDYWGQGTQVTVSS”, which “polyreactivity (PSR sort gate)” value is on record?
**A.** low polyreactivity

**Q.** With “QVQLVESGGGLVQAGGSLRLSCAASGFIFYDYAMGWYRQAPGKERELVAVITSGGSTYYADSVKGRFTISRDNAKNTVYLQMNSLKPEDTAVYYCNADWVFTWYDYPNDKYDYWGQGTQVTVSS” as the sequence, how does the “polyreactivity (PSR sort gate)” value read?
**A.** low polyreactivity
